# Test results as given in ChEMBL document CHEMBL1155272, “Nucleoside-5'-monophosphates as prodrugs of adenosine A2A receptor agonists activated by ecto-5'-nucleotidase” (J Med Chem, 2009).
# Substrate: Nc1ncnc2c1ncn2[C@@H]1O[C@H](COP(=O)(O)O)[C@@H](O)[C@H]1O
# Experiment: Activity at alkaline phosphatase
protein,measurement,value
"Alkaline phosphatase, tissue-nonspecific isozyme (Homo sapiens), P05186 (protein) MISPFLVLAIGTCLTNSLVPEKEKDPKYWRDQAQETLKYALELQKLNTNVAKNVIMFLGDGMGVSTVTAARILKGQLHHNPGEETRLEMDKFPFVALSKTYNTNAQVPDSAGTATAYLCGVKANEGTVGVSAATERSRCNTTQGNEVTSILRWAKDAGKSVGIVTTTRVNHATPSAAYAHSADRDWYSDNEMPPEALSQGCKDIAYQLMHNIRDIDVIMGGGRKYMYPKNKTDVEYESDEKARGTRLDGLDLVDTWKSFKPRYKHSHFIWNRTELLTLDPHNVDYLLGLFEPGDMQYELNRNNVTDPSLSEMVVVAIQILRKNPKGFFLLVEGGRIDHGHHEGKAKQALHEAVEMDRAIGQAGSLTSSEDTLTVVTADHSHVFTFGGYTPRGNSIFGLAPMLSDTDKKPFTAILYGNGPGYKVVGGERENVSMVDYAHNNYQAQSAVPLRHETHGGEDVAVFSKGPMAHLLHGVHEQNYVPHVMAYAACIGANLGHCAPASSAGSLAAGPLLLALALYPLSVLF",Km,441 µM
